Measurements reported in the supplement of paper PMC10065799, “High-throughput profiling of sequence recognition by tyrosine kinases and SH2 domains using bacterial peptide display” (eLife, 2023).

Tests used:
c-Src SH2 = assay: SH2 binding enrichment of the phosphorylated peptide, bacterial display (enrichment ratio); higher = better substrate or ligand; peptides without Tyr show the background
SHP2-C SH2 = assay: as above
Grb2 SH2 = Grb2 SH2 (UniProt P62993); assay: as above
Fes = Fes (UniProt P07332); assay: phosphorylation enrichment, bacterial display (enrichment ratio); higher = better substrate or ligand; peptides without Tyr show the background
Jak2 = Jak2 (UniProt O60674); assay: as above
Jak2, sequence (O60674 whole entry, looked up): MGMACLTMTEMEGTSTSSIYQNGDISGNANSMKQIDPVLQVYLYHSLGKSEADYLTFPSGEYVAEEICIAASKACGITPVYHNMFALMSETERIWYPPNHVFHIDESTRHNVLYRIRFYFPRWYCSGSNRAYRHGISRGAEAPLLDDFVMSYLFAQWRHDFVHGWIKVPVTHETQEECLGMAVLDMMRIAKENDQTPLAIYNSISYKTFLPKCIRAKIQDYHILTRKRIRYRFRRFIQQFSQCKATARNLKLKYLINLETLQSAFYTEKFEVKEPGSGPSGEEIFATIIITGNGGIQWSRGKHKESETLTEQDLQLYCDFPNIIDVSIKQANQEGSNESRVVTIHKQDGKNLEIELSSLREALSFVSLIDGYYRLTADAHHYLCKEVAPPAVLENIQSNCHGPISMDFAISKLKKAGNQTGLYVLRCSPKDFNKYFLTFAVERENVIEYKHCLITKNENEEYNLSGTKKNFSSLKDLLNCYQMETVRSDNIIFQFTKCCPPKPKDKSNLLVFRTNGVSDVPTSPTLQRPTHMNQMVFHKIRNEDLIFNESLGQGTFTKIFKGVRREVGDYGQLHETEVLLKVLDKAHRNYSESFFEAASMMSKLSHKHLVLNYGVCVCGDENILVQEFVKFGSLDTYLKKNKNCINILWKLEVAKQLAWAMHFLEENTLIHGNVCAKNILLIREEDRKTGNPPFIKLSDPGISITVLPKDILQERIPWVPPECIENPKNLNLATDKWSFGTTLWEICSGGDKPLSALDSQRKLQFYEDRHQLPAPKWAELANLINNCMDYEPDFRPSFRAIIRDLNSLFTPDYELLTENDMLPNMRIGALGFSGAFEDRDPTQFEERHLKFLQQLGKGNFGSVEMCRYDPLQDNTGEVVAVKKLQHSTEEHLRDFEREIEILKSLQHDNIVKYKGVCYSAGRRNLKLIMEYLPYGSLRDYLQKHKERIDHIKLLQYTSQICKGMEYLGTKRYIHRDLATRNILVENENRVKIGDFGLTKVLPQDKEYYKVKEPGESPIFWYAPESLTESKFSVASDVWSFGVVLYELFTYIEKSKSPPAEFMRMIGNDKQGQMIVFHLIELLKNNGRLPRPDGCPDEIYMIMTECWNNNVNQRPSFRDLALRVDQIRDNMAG

AncSZ = assay: as above
FGFR3 = FGFR3 (UniProt P22607); assay: as above
EPHB1 = EPHB1 (UniProt P54762); assay: as above
Fer (mouse) = assay: as above
MERTK = MERTK (UniProt Q12866); assay: as above
MERTK, sequence (Q12866 whole entry, looked up): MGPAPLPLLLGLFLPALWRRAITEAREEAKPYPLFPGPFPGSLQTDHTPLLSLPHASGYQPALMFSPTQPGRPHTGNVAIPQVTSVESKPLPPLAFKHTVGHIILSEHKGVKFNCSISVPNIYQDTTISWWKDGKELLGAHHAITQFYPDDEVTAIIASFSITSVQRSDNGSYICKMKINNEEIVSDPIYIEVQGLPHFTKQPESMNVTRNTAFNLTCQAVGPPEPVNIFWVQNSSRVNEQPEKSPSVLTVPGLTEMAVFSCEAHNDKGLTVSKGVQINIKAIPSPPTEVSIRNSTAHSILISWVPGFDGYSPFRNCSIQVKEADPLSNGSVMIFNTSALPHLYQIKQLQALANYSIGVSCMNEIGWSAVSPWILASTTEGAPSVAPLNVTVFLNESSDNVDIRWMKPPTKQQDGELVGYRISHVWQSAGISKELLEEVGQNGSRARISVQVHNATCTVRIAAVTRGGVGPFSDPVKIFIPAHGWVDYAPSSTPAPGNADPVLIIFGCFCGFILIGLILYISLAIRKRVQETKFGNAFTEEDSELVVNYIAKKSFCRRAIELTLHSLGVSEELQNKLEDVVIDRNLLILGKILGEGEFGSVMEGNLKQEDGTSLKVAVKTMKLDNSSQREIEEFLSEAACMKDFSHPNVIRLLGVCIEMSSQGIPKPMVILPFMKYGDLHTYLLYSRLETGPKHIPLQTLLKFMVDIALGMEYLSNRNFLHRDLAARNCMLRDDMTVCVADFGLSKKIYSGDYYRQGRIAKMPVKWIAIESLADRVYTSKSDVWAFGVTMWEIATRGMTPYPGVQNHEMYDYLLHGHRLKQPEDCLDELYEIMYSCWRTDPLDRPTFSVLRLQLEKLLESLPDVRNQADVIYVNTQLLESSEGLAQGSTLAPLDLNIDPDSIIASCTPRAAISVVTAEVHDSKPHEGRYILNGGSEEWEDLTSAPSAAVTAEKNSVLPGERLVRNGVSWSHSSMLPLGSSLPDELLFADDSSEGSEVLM

EPHB2 = EPHB2 (UniProt P29323); assay: as above
EPHB2, sequence (P29323 whole entry, looked up): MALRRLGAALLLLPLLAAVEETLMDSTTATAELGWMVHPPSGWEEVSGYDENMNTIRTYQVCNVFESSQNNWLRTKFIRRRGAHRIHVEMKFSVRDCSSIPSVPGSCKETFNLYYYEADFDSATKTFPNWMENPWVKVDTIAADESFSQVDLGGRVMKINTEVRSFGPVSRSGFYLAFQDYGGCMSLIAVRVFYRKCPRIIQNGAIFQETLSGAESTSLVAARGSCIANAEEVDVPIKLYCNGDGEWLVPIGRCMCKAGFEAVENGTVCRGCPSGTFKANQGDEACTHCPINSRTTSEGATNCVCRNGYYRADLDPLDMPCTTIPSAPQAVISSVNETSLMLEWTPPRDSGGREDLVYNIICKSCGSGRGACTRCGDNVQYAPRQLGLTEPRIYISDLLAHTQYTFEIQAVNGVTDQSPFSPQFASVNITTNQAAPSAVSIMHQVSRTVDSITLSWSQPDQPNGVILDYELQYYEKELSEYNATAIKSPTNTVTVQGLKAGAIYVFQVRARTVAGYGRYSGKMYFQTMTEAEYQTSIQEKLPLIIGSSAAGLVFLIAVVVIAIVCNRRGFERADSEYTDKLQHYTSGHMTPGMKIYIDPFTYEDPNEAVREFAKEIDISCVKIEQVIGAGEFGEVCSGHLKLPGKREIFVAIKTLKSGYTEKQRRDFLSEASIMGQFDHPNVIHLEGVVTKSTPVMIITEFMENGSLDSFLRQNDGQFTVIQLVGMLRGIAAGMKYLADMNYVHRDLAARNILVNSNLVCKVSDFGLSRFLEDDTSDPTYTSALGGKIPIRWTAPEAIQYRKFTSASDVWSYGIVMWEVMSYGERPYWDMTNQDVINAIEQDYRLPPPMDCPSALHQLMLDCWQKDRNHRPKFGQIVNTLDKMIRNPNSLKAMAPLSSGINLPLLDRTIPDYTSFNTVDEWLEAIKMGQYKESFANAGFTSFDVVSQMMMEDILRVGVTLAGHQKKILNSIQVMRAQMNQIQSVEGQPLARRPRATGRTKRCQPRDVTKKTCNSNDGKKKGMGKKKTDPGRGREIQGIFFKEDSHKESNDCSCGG

c-Abl (mouse) = assay: as above
Hck = Hck (UniProt P08631); assay: as above
Hck, sequence (P08631 whole entry, looked up): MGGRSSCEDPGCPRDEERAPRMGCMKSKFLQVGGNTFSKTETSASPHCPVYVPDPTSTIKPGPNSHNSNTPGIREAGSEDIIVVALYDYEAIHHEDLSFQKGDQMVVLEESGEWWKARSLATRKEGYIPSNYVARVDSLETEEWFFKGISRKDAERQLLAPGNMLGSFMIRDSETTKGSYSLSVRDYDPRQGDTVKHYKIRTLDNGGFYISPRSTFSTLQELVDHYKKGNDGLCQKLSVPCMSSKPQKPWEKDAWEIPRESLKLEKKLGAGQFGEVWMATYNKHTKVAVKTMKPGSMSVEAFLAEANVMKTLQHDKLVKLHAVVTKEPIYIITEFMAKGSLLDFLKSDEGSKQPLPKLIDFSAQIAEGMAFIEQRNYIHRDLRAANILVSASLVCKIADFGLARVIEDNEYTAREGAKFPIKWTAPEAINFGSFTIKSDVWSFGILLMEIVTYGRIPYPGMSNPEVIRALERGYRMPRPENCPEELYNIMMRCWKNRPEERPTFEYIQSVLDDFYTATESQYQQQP

Fyn = Fyn (UniProt P06241); assay: as above
Fyn, sequence (P06241 whole entry, looked up): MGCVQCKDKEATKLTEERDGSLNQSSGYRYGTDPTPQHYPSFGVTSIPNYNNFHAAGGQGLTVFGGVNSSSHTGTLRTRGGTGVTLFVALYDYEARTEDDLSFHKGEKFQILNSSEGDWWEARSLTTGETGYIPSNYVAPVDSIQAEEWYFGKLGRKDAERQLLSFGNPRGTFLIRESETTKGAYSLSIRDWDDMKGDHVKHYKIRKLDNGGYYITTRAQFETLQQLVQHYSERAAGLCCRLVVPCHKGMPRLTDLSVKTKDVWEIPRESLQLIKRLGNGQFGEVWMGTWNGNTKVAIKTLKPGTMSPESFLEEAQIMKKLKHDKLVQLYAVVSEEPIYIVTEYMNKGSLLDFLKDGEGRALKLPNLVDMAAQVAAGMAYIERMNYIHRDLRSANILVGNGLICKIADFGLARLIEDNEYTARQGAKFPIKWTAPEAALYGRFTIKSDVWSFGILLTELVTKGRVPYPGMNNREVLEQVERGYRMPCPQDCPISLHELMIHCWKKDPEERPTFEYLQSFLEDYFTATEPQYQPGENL

c-Src = assay: as above
FGFR1 = FGFR1 (UniProt P11362); assay: as above
FGFR1, sequence (P11362 whole entry, looked up, the tested form may be a part): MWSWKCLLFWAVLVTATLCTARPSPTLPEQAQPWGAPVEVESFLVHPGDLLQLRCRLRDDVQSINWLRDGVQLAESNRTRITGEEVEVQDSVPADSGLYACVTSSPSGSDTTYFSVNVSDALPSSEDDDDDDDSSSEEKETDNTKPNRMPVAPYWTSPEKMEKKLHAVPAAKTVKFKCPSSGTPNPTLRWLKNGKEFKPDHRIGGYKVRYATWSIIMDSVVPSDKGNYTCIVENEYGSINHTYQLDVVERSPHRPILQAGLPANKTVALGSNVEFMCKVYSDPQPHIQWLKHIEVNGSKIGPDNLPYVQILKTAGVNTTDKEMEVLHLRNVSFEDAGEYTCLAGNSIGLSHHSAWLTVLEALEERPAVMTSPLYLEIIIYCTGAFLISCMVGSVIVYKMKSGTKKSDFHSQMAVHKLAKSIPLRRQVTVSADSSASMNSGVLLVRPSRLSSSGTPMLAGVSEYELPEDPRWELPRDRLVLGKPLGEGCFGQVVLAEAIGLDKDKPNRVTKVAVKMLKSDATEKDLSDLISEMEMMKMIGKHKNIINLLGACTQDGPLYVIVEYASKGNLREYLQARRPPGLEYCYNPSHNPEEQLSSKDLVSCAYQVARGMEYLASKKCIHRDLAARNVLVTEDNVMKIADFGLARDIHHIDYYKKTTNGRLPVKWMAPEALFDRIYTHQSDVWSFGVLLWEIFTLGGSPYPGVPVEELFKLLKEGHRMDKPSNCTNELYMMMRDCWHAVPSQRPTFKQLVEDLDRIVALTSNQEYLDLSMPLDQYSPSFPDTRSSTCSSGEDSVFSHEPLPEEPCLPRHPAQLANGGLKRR
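Throughout, for SH2 binding enrichment of the phosphorylated peptide, bacterial display: peptide library displayed on the E. coli surface as eCPX fusions, selected cells deep-sequenced, score is each peptide's frequency after selection divided by its frequency in the input.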
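Throughout, for phosphorylation enrichment, bacterial display: 11-residue human phosphosite peptides and single-mutation variants displayed on the E. coli surface, counted by deep sequencing, each peptide's frequency after selection divided by its frequency in the unselected input library; frequency after pTyr selection over input frequency; kinase dosed for 20-30% of maximal phosphorylation in three min.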

Sequence | SH2 binding enrichment (c-Src SH2) | SH2 binding enrichment (SHP2-C SH2) | SH2 binding enrichment (Grb2 SH2) | phosphorylation enrichment (Fes) | phosphorylation enrichment (Jak2) | phosphorylation enrichment (AncSZ) | phosphorylation enrichment (FGFR3) | phosphorylation enrichment (EPHB1) | phosphorylation enrichment (Fer (mouse)) | phosphorylation enrichment (MERTK) | phosphorylation enrichment (EPHB2) | phosphorylation enrichment (c-Abl (mouse)) | phosphorylation enrichment (Hck) | phosphorylation enrichment (Fyn) | phosphorylation enrichment (c-Src) | phosphorylation enrichment (FGFR1)
MSNVPYVMNRG [ACAT1_Y161] | 0.399 | 0.657 | 0.919 | 0.619 | 0.572 | 0.734 | 0.594 | 0.368 | 0.377 | 0.474 | 0.421 | 0.527 | 0.399 | 0.426 | 0.478 | 0.464
REAMEYLESKQ [BTK_Y511_C506R] | 0.491 | 0.678 | 0.706 | 1.15 | 1.09 | 1.62 | 0.794 | 0.657 | 0.704 | 0.501 | 0.573 | 1.15 | 0.505 | 0.703 | 0.701 | 0.754
TDDMRYPMKSE [TGDS_Y302_N298D] | 0.439 | 0.626 | 0.827 | 0.863 | 0.694 | 0.77 | 0.621 | 0.378 | 0.518 | 0.488 | 0.527 | 0.651 | 0.42 | 0.43 | 0.455 | 0.529
TLQSMSGCDVG [HLA-B_Y123_Y123S] | 0.491 | 0.488 | 0.836 | 0.791 | 1.38 | 0.677 | 0.932 | 0.488 | 0.499 | 0.421 | 0.601 | 0.536 | 0.482 | 0.42 | 0.406 | 0.48
ASIVDYNIIGW [MYH7_Y588_G584S] | 0.535 | 0.769 | 0.761 | 1.22 | 0.947 | 1.11 | 0.865 | 0.742 | 0.59 | 0.498 | 0.528 | 0.92 | 0.605 | 0.45 | 0.514 | 0.948
DHAGTYGLGDR [MAPT_Y18] | 0.588 | 0.783 | 0.797 | 0.576 | 0.507 | 0.429 | 0.45 | 0.363 | 0.3 | 0.352 | 0.304 | 0.442 | 0.43 | 0.48 | 0.533 | 0.406
LNPLIYTLRNA [OR4C46_Y285_K288R] | 0.521 | 0.738 | 0.798 | 1.12 | 1.31 | 1.79 | 0.863 | 0.576 | 1.03 | 1.97 | 0.9 | 1.76 | 7.15 | 4.69 | 6.62 | 0.922
LEKISYVFMKR [SSX7_Y48_YF] | 0.432 | 0.831 | 0.85 | 2.51 | 1.72 | 1.9 | 1.42 | 1.65 | 0.879 | 0.538 | 1.21 | 0.811 | 1.14 | 0.963 | 0.581 | 0.969
RREWFYEVIIV [BACE1_Y260_YF] | 0.526 | 0.741 | 0.927 | 4.8 | 0.882 | 1.53 | 0.505 | 0.928 | 1.89 | 2.28 | 0.372 | 0.766 | 0.561 | 0.649 | 0.515 | 0.605
NRVEIYDKTVE [CYFIP1_Y108_E109D] | 0.798 | 0.504 | 1.15 | 0.938 | 0.755 | 0.905 | 0.519 | 0.495 | 0.435 | 0.4 | 0.521 | 0.576 | 0.682 | 0.443 | 0.47 | 0.534
GPKSTYISSAG [GOLGA5_Y62_A67G] | 0.38 | 0.581 | 0.713 | 0.587 | 0.411 | 0.496 | 0.374 | 0.298 | 0.345 | 0.389 | 0.382 | 0.464 | 0.319 | 0.395 | 0.365 | 0.326
DTKPAYQNLRQ [BOD1_Y82] | 0.864 | 0.666 | 11.8 | 0.541 | 0.524 | 0.462 | 0.452 | 0.38 | 0.385 | 0.313 | 0.35 | 0.719 | 0.349 | 0.383 | 0.38 | 0.434
KAPPTYDTVLQ [CYP3A4_Y347] | 2.28 | 0.556 | 0.887 | 0.735 | 0.576 | 0.686 | 0.483 | 6.72 | 2.09 | 1.89 | 7.86 | 0.663 | 2.98 | 2.46 | 1.44 | 0.36
SRFQFYFQQKG [CHKB_Y381] | 0.473 | 0.728 | 0.692 | 1.56 | 1.47 | 1.63 | 1.02 | 0.938 | 0.597 | 0.369 | 0.612 | 0.99 | 0.551 | 0.48 | 0.379 | 0.579
MPVDGYISGLL [PAK6_Y81] | 0.511 | 0.661 | 0.903 | 0.953 | 0.817 | 0.716 | 0.626 | 0.447 | 0.522 | 0.41 | 0.59 | 0.622 | 0.441 | 0.524 | 0.487 | 0.583
SSAETYSRMRL [NBEAL2_Y1835] | 0.691 | 0.724 | 0.719 | 0.577 | 0.501 | 0.513 | 0.44 | 0.443 | 0.54 | 0.412 | 0.436 | 0.509 | 0.709 | 0.431 | 0.471 | 0.393
KKRSVYIKVLF [CC2D2A_Y683_L684I] | 0.548 | 0.646 | 1.1 | 0.954 | 0.798 | 0.99 | 0.515 | 0.411 | 0.451 | 0.335 | 0.396 | 0.644 | 0.363 | 0.392 | 0.304 | 0.457
AGQERYRAITS [RAB11B_Y73] | 0.404 | 0.412 | 0.938 | 0.627 | 0.704 | 0.641 | 0.466 | 0.413 | 0.469 | 0.487 | 0.53 | 0.605 | 0.527 | 0.554 | 0.512 | 0.613
GLDGSYLLTDS [SH2D1A_Y29_R32T] | 0.505 | 0.648 | 0.683 | 0.863 | 0.697 | 0.864 | 0.604 | 0.491 | 0.455 | 0.369 | 0.541 | 0.551 | 0.435 | 0.423 | 0.469 | 0.483
FGCTFYNQAIM [MCCC2_Y196_R193C] | 0.534 | 0.608 | 0.685 | 1.54 | 1.32 | 1.4 | 1.04 | 0.825 | 0.647 | 0.365 | 0.777 | 0.968 | 0.597 | 0.472 | 0.47 | 0.529
YLTSSYINIST [IL23R_Y178] | 2.21 | 1.9 | 11.7 | 1.18 | 1.81 | 0.978 | 1.29 | 0.735 | 0.567 | 0.648 | 0.588 | 1.11 | 0.637 | 0.488 | 0.466 | 1.27
PQDSAYHSGIQ [FLG_Y3940_S3935P] | 0.437 | 0.613 | 0.787 | 0.755 | 0.598 | 0.651 | 0.522 | 0.652 | 0.419 | 0.445 | 0.49 | 1.69 | 0.486 | 0.459 | 0.553 | 0.534
EILDVYIFLGP [GAA_Y340_G335E] | 0.46 | 0.793 | 0.965 | 1.27 | 1.37 | 1.4 | 1.79 | 0.912 | 0.532 | 1.15 | 0.889 | 0.649 | 0.742 | 0.934 | 0.962 | 2
PDMHSYMVRFN [GRIN2D_Y732_YF] | 0.474 | 0.548 | 0.909 | 0.931 | 1.14 | 0.991 | 0.807 | 0.488 | 0.494 | 0.651 | 0.69 | 0.811 | 0.641 | 0.629 | 1.15 | 0.711
ALAHKYDGGGG [HBB_Y146_H147D] | 0.401 | 0.357 | 0.765 | 0.7 | 0.825 | 0.985 | 0.494 | 0.464 | 0.635 | 0.54 | 0.655 | 0.663 | 0.473 | 0.367 | 0.478 | 0.751
FISVGYVDDTL [HLA-B_Y51_Q56L] | 0.728 | 0.896 | 1.05 | 1.21 | 1.03 | 1.12 | 0.801 | 0.738 | 0.652 | 0.436 | 0.736 | 0.772 | 0.485 | 0.486 | 0.557 | 0.572
AEFGLYAAMVR [VSX2_Y222_G223A_YF] | 0.494 | 0.581 | 0.898 | 1.24 | 1.54 | 1.29 | 0.888 | 2.79 | 1.4 | 2.69 | 2.14 | 1.09 | 4.34 | 2.44 | 2.17 | 0.614
RAVLLYEYVGK [NATD1_Y45] | 1.02 | 1.11 | 1.19 | 4.82 | 0.857 | 3.07 | 3.99 | 28.2 | 19.4 | 11.4 | 35.4 | 1.24 | 10.4 | 6.98 | 5.21 | 3.61
EKLQKYYRKNP [EHHADH_Y682_Q685K] | 0.603 | 1.11 | 0.95 | 0.753 | 0.694 | 0.575 | 0.598 | 0.471 | 0.417 | 0.394 | 0.484 | 0.699 | 0.353 | 0.388 | 0.482 | 0.45
